Target: putative cross-reactive peptide arising from SH2D3A, on HLA-A*02:01 of T2 cells (human)
Assay: cell-based or functional assay

EC50 in T2/peptide TDCC assay, against the DCAF4L2 target peptide: 87 fold
B1: TCR2 (TCR, V domains shown)
V domain 1: EDQVTQSPEALRLQEGESSSLNCSYTVSGLRGLFWYRQDPGKGPEFLFTLYSAGEEKEKERLKATLTKKESFLHITAPKPEDSATYLCAVQAWGGGSQGNLIFGKGTKLSVKP
V domain 2: DSGVTQTPKHLITATGQRVTLRCSPRSGDLSVYWYQQSLDQGLQFLIQYYNGEERAKGNILERFSAQQFPDLHSELNLSSLELGDSALYFCASSAGDRGYEQYFGPGTRLTVTE

— patent US20250009799A1 (Amgen, published 2025)
